{
  "source": "paper PMC8523171",
  "about": "“The cooperative binding of TDP-43 to GU-rich RNA repeats antagonizes TDP-43 aggregation”",
  "molecules": {"B1": {"name": "(GT)12 (ssDNA)", "DNA": "GTGTGTGTGTGTGTGTGTGTGTGT"}, "B2": {"name": "(GT)3 (ssDNA)", "DNA": "GTGTGT"}, "B3": {"name": "(GU)6 (ssRNA)", "RNA": "GUGUGUGUGUGU"}, "B4": {"name": "(GU)12 (ssRNA)", "RNA": "GUGUGUGUGUGUGUGUGUGUGUGU"}, "B5": {"name": "AUG12-(GU)6 (ssRNA)", "RNA": "GUGUGAAUGAAUGUGUGUGUGUGU"}, "B6": {"name": "(GT)6 (ssDNA)", "DNA": "GTGTGTGTGTGT"}, "B7": {"name": "(GU)24 (ssRNA)", "RNA": "GUGUGUGUGUGUGUGUGUGUGUGUGUGUGUGUGUGUGUGUGUGUGUGU"}},
  "key": {"TDP-43 RRM1-2 (human)": {"molecular_target": "TDP-43 RRM1-2 (human) (UniProt Q13148)", "sequence (Q13148 101-277)": "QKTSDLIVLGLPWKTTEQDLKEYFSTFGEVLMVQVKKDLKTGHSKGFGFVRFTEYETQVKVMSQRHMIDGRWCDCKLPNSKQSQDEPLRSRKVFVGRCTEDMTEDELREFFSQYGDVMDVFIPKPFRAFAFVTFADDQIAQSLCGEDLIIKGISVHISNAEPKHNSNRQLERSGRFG", "test": "ITC", "details": "apparent, one set of sites model, ITC: 15 mM phosphate pH 6.8, 25 mM KCl, 1 mM TCEP, 25 C, NMR: same buffer, 298 K (SEA-HSQC 310 K), EMSA: 20 mM HEPES pH 7.6, 25 mM KCl, 2 mM MgCl2 …"}, "TDP-43 RRM1 [1]": {"molecular_target": "T1, TDP-43 RRM1 (human, UniProt Q13148 101-192)", "T1 sequence (Q13148 101-192)": "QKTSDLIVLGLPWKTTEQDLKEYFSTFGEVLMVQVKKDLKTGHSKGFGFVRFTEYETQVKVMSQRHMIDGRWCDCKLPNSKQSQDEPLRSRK", "test": "ITC; Kd1; ITC: 15 mM phosphate pH 6.8, 25 mM KCl, 1 mM TCEP, 25 C; NMR: same buffer, 298 K (SEA-HSQC 310 K); EMSA: 20 mM HEPES pH 7.6, 25 mM KCl, 1 mM TCEP, 2 mM MgCl2, room temperature, 10 pmol DNA in 10 uL", "details": "protein: recombinant; tags: His6 cleaved by TEV; chain copies: 2; single strand"}, "TDP-43 RRM1-2 [2]": {"molecular_target": "T2, TDP-43 RRM1-2 (human, UniProt Q13148 101-277)", "T2 sequence (Q13148 101-277)": "as the sequence (Q13148 101-277) above", "test": "ITC; Kd1, first monomer; ITC: 15 mM phosphate pH 6.8, 25 mM KCl, 1 mM TCEP, 25 C; NMR: same buffer, 298 K (SEA-HSQC 310 K); EMSA: 20 mM HEPES pH 7.6, 25 mM KCl, 1 mM TCEP, 2 mM MgCl2, room temperature, 10 pmol DNA in 10 uL", "details": "protein: recombinant; tags: His6 cleaved by TEV; residual N-terminal GSH (180 aa); single strand"}, "TDP-43 RRM1-2 [3]": {"molecular_target": "T2, TDP-43 RRM1-2", "test": "ITC; ITC: 15 mM phosphate pH 6.8, 25 mM KCl, 1 mM TCEP, 25 C; NMR: same buffer, 298 K (SEA-HSQC 310 K); EMSA: 20 mM HEPES pH 7.6, 25 mM KCl, 1 mM TCEP, 2 mM MgCl2, room temperature, 10 pmol DNA in 10 uL", "details": "protein: recombinant; tags: His6 cleaved by TEV; residual N-terminal GSH (180 aa); single strand"}, "TDP-43 RRM1 [4]": {"molecular_target": "T1, TDP-43 RRM1", "test": "ITC; ITC: 15 mM phosphate pH 6.8, 25 mM KCl, 1 mM TCEP, 25 C; NMR: same buffer, 298 K (SEA-HSQC 310 K); EMSA: 20 mM HEPES pH 7.6, 25 mM KCl, 1 mM TCEP, 2 mM MgCl2, room temperature, 10 pmol DNA in 10 uL", "details": "protein: recombinant; tags: His6 cleaved by TEV; chain copies: 2; single strand"}, "TDP-43 RRM1-2 [5]": {"molecular_target": "T2, TDP-43 RRM1-2", "test": "NMR; single RRM1-2 bound; ITC: 15 mM phosphate pH 6.8, 25 mM KCl, 1 mM TCEP, 25 C; NMR: same buffer, 298 K (SEA-HSQC 310 K); EMSA: 20 mM HEPES pH 7.6, 25 mM KCl, 1 mM TCEP, 2 mM MgCl2, room temperature, 10 pmol DNA in 10 uL", "details": "protein: recombinant; tags: His6 cleaved by TEV; residual N-terminal GSH (180 aa); single strand"}, "TDP-43 RRM1-2 [6]": {"molecular_target": "T2, TDP-43 RRM1-2", "test": "NMR and SAXS; two RRM1-2 bound; ITC: 15 mM phosphate pH 6.8, 25 mM KCl, 1 mM TCEP, 25 C; NMR: same buffer, 298 K (SEA-HSQC 310 K); EMSA: 20 mM HEPES pH 7.6, 25 mM KCl, 1 mM TCEP, 2 mM MgCl2, room temperature, 10 pmol DNA in 10 uL", "details": "protein: recombinant; tags: His6 cleaved by TEV; residual N-terminal GSH (180 aa); single strand"}, "TDP-43 RRM1-2 [7]": {"molecular_target": "T2, TDP-43 RRM1-2", "test": "NMR and SAXS; same dimer interface as with (GU)12; ITC: 15 mM phosphate pH 6.8, 25 mM KCl, 1 mM TCEP, 25 C; NMR: same buffer, 298 K (SEA-HSQC 310 K); EMSA: 20 mM HEPES pH 7.6, 25 mM KCl, 1 mM TCEP, 2 mM MgCl2, room temperature, 10 pmol DNA in 10 uL", "details": "protein: recombinant; tags: His6 cleaved by TEV; residual N-terminal GSH (180 aa); single strand"}, "TDP-43 RRM2": {"molecular_target": "TDP-43 RRM2 (human, UniProt Q13148 176-277)", "sequence (Q13148 176-277)": "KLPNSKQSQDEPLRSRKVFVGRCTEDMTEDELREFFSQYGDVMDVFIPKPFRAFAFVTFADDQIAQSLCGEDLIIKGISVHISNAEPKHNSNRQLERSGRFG", "test": "ITC; two protein copies; Kd values not in material; ITC: 15 mM phosphate pH 6.8, 25 mM KCl, 1 mM TCEP, 25 C; NMR: same buffer, 298 K (SEA-HSQC 310 K); EMSA: 20 mM HEPES pH 7.6, 25 mM KCl, 1 mM TCEP, 2 mM MgCl2, room temperature, 10 pmol DNA in 10 uL", "details": "protein: recombinant; tags: His6 cleaved by TEV; chain copies: 2; single strand"}, "TDP-43 RRM1-2 [8]": {"molecular_target": "T2, TDP-43 RRM1-2", "test": "NMR; additional CSPs and peak broadening; ITC: 15 mM phosphate pH 6.8, 25 mM KCl, 1 mM TCEP, 25 C; NMR: same buffer, 298 K (SEA-HSQC 310 K); EMSA: 20 mM HEPES pH 7.6, 25 mM KCl, 1 mM TCEP, 2 mM MgCl2, room temperature, 10 pmol DNA in 10 uL", "details": "protein: recombinant; tags: His6 cleaved by TEV; residual N-terminal GSH (180 aa); single strand"}},
  "data": [
    {"molecule": "CLIP34nt (DNA)", "values": [
      {"measurement": "Kd", "setting": "TDP-43 RRM1-2 (human)", "value": 270, "unit": "nM"}
    ]},
    {"molecule": "B1", "values": [
      {"measurement": "Kd", "setting": "TDP-43 RRM1 [1]", "value": 2300, "unit": "nM"},
      {"measurement": "Kd", "setting": "TDP-43 RRM1-2 [2]", "value": 51, "unit": "nM"}
    ]},
    {"molecule": "B2", "values": [
      {"measurement": "Kd", "setting": "TDP-43 RRM1-2 [3]", "value": 2200, "unit": "nM"},
      {"measurement": "Kd", "setting": "TDP-43 RRM1 [4]", "value": 929, "unit": "nM"}
    ]},
    {"molecule": "B3", "values": [
      {"measurement": "binding result", "setting": "TDP-43 RRM1-2 [5]", "value": "binds"}
    ]},
    {"molecule": "B4", "values": [
      {"measurement": "binding result", "setting": "TDP-43 RRM1-2 [6]", "value": "binds"}
    ]},
    {"molecule": "B5", "values": [
      {"measurement": "binding result", "setting": "TDP-43 RRM1-2 [7]", "value": "binds"}
    ]},
    {"molecule": "B6", "values": [
      {"measurement": "Kd", "setting": "TDP-43 RRM1 [1]", "value": 84.4, "unit": "nM"},
      {"measurement": "Kd", "setting": "TDP-43 RRM1-2 [3]", "value": 68.4, "unit": "nM"},
      {"measurement": "binding signal", "setting": "TDP-43 RRM2", "value": 0.05, "unit": "Kd1/Kd2 ratio"}
    ]},
    {"molecule": "B7", "values": [
      {"measurement": "binding result", "setting": "TDP-43 RRM1-2 [8]", "value": "binds"}
    ]}
  ]
}
